Columns and labels:
Candida albicans [1] = test: fungicidal activity against Candida albicans strains (Example 4); format: cell-based
Experimental: (§1) In this example the fungicidal activity of the peptides according to the invention was tested and compared to the fungicidal activity of human lactoferrin. Different concentrations of hLF, peptide 3 and peptide 4 were incubated with different strains of Candida albicans and Candida krusei during 1-2 hours at 37° C. in 0.05 mM KCl at pH 7.0 at two different occasions—experiment I and II, respectively. After incubation samples were taken for plating on Saboroud plates.

C. albicans (ATCC 64549) = test: microbe, parasite or virus in culture; details: C. albicans ATCC 64549, 2×10^5 cells/ml, BHI diluted 1/100
Experimental: In the examples, the minimal microbicidal concentrations (MMC) and minimal inhibitory concentrations (MIC) were determined as follows, unless otherwise specified in the examples. Bacterial or fungal strains were cultured in BHI medium over night at 37° C. A volume of the culture was transferred to a new tube with BHI and incubated for two more hours. Thereafter the cells were spun down and the pellet was suspended in BHI medium diluted 1/100 (1% BHI). The concentration of bacterial or fungal cells was spectrophotometrically determined at 650 nm. The microbial concentrations were also determined by viable counts. Peptides serially diluted in 1% BHI by twofold or tenfold steps were added in triplicate to the wells of a microtiterplate (200 μl per well). The bacterial or fungal cell solutions were added in 10 μl volumes to give a final concentration of approximately 1-5×10^5 cells per ml in the well. The microplate was incubated at 37° C. in a humid chamber for two hours. […] The microplate was incubated for another 20 hours at 37° C. and thereafter analysed spectrophotometrically at 650 nm in a microplate reader (Emax, Molecular Devices, USA). […] The MIC value was defined as the concentration giving no increase in the absorbance value above the background level after 20 hours of incubation. […]

E. coli O14 = test: bactericidal activity, incubation with E. coli O14 (Example 3, exp. I and III); format: cell-based
Experimental: (§2) Human lactoferrin (hLF), peptide 3, and peptide 4, respectively, were incubated with two different strains of E. coli, E. coli O14 (experiment I) and O6K5 (experiment II), in diluted growth medium ( 1/100 BHI—brain heart infusion) for 2 hours. The peptides were also incubated with E. coli O14 in 0.05 mM KCl (pH 7) without any growth medium (experiment III). Different concentrations of the peptides were tested.
(§3) After the incubation, samples were taken for bacterial plating. Serial dilutions of five- and fourfold steps were used in experiments I and II, respectively, and of twofold steps in experiment III.
(§4) The concentrations of the different peptides required for killing 100% (experiments I and II) or 90% (experiment III) of the bacteria are given in table 2.

[2] = test system: LPS-induced IL-6 response in a monocytic cell line (THP-1); test: inhibition of LPS-induced IL-6 response in THP-1 cells (Example 5); format: cell-based; details: IL-6 response in THP-1 cells, agent added 30 minutes after LPS
Experimental: In this example an in vitro test was performed to study the anti-inflammatory activity of the peptides according to the invention. More precisely, the inhibitory effect of the peptides according to the invention on the LPS-induced IL-6 response in a monocytic cell line (THP-1) was studied and compared to the effect of human lactoferrin by use of the method described by I. Mattsby-Baltzer et al., Pediatr. Res. 40:257-262, 1996. The IL-6 response in the THP-1 cells was induced by addition of LPS. hLF, peptide 3 and peptide 4, respectively, were added 30 minutes after LPS.

Candida krusei = test: fungicidal activity against Candida krusei strains (Example 4); format: cell-based; details: Exp. I
Experimental: as §1

Candida albicans [3] = test: fungicidal activity against Candida albicans, comparison with EP-A-0 629 347 peptides (Example 7); format: cell-based; details: C. albicans, I (tenfold steps)
Experimental: In this example an in vitro test was performed to compare the bactericidal and fungicidal activity of the peptides according to the invention with peptides described in EP-A-0 629 347. The peptide according to the invention used was peptide 4, and the peptides according to EP-A-0 629 347 called Morinaga 10, Morinaga 11, Morinaga 12, and Morinaga 13.
The peptides were incubated with E. coli O14 and Candida albicans. Two concentrations of C. albicans yeast cells were tested, 5·10^6 and 5·10^3 per ml. Different concentrations of the peptides were tested.
After the incubation, samples were taken for bacterial plating. Serial dilutions of tenfold steps were used in the experiments marked with I in table 5 and of twofold steps in the experiments marked with II.

E. coli O6K5 [4] = test: urinary tract infection in mice, bacteria (CFU) in kidney (Example 6); format: in vivo; details: Exp II, mouse strain C3H/Tif, 500 μg per mouse orally 30 minutes after instillation, 24 hours
Experimental: E. coli O6K5 was instilled into the urinary bladder of mice. 30 minutes after instillation the different agents specified in table 5 were administered orally in an amount of 500 μg per mouse and 24 hours after instillation the number of bacteria (CFU) present in bladder and in kidney was determined.
The control group consisted of 10 animals in experiment I and of 23 animals in experiment II. The animals in the control groups were given tap water instead of peptide or hLF.

E. coli O6K5 [5] = test: bactericidal activity, incubation with E. coli O6K5 (Example 3, exp. II); format: cell-based; details: Exp. II: 100% killing, E. coli O6K5, 1/100 BHI, 2 hours
Experimental: as §2, §3, §4

B1: human lactoferrin (protein, UniProt P02788 20-710, looked up)
Lactotransferrin: GRRRSVQWCAVSQPEATKCFQWQRNMRKVRGPPVSCIKRDSPIQCIQAIAENRADAVTLDGGFIYEAGLAPYKLRPVAAEVYGTERQPRTHYYAVAVVKKGGSFQLNELQGLKSCHTGLRRTAGWNVPIGTLRPFLNWTGPPEPIEAAVARFFSASCVPGADKGQFPNLCRLCAGTGENKCAFSSQEPYFSYSGAFKCLRDGAGDVAFIRESTVFEDLSDEAERDEYELLCPDNTRKPVDKFKDCHLARVPSHAVVARSVNGKEDAIWNLLRQAQEKFGKDKSPKFQLFGSPSGQKDLLFKDSAIGFSRVPPRIDSGLYLGSGYFTAIQNLRKSEEEVAARRARVVWCAVGEQELRKCNQWSGLSEGSVTCSSASTTEDCIALVLKGEADAMSLDGGYVYTAGKCGLVPVLAENYKSQQSSDPDPNCVDRPVEGYLAVAVVRRSDTSLTWNSVKGKKSCHTAVDRTAGWNIPMGLLFNQTGSCKFDEYFSQSCAPGSDPRSNLCALCIGDEQGENKCVPNSNERYYGYTGAFRCLAENAGDVAFVKDVTVLQNTDGNNNEAWAKDLKLADFALLCLDGKRKPVTEARSCHLAMAPNHAVVSRMDKVERLKQVLLHQQAKFGRNGSDCPDKFCLFQSETKNLLFNDNTECLARLHGKTTYEKYLGPQYVAGITNLKKCSTSPLLEACEFLRK
- Concentration of agent for 99% killing (Candida albicans [1]; Exp. I, C. albicans ATCC 64549, 0.05 mM KCl pH 7.0, 1-2 hours 37° C.): >50 µg/mL
- Concentration of agent for 99% killing (Candida albicans [1]; Exp. I, C. albicans CCUG 90028, 0.05 mM KCl pH 7.0): >50 µg/mL
- Concentration of agent for 99% killing (Candida albicans [1]; Exp. II, C. albicans ATCC 64549, 0.05 mM KCl pH 7.0): >200 µg/mL
- Concentration of agent for 99% killing (Candida albicans [1]; Exp. II, C. albicans CCUG 599, 0.05 mM KCl pH 7.0): >200 µg/mL
- Concentration of agent for 99% killing (Candida albicans [1]; Exp. II, C. albicans CCUG 1759, 0.05 mM KCl pH 7.0): >200 µg/mL
- MIC (C. albicans (ATCC 64549)): 1000 µg/mL
- MMC99% (C. albicans (ATCC 64549)): >1000 µg/mL
- Concentration of agent for 100%/90% killing (E. coli O14; Exp. I: 100% killing, E. coli O14, 1/100 BHI, 2 hours): 400 µg/mL
- Concentration of agent for 100%/90% killing (E. coli O14; Exp. III: 90% killing, E. coli O14, 0.05 mM KCl (pH 7) without growth medium): >4000 µg/mL
- % inhibition of LPS response [2]: 15%
- Concentration of agent for 99% killing (Candida krusei; C. krusei CCUG 969, 0.05 mM KCl pH 7.0): 25 µg/mL
- Concentration of agent for 99% killing (Candida krusei; C. krusei CCUG 35849, 0.05 mM KCl pH 7.0): 12.5 µg/mL
- Concentration of agent for 100% killing (Candida albicans [3]; 5 · 10^3 yeast cells per ml): >2000 µg/mL
- Concentration of agent for 100% killing (Candida albicans [3]; 5 · 10^6 yeast cells per ml): >1000 µg/mL
- Statistical comparison of treatment group with control group of the number of bacteria, CFU, present in kidney (p, Mann-Whitney) (E. coli O6K5 [4]): p = 0.006
- Concentration of agent for 100%/90% killing (E. coli O6K5 [5]): 2000 µg/mL

From patent publication US7803757B2, “Peptides based on the sequence of human lactoferrin and their use” (PharmaSurgics in Sweden AB, priority 1998, dated 2010)
